Experimental data: patent publication US20210292396A1

Tests used:
Assay in all cases: cell-based or functional assay
[1] = target: Env of HIV isolate 6405.v4.c34 (clade D) (HIV)
[2] = target: Env of HIV isolate 89.6.DG (clade B) (HIV)
[3] = target: Env of HIV isolate ADA.DG (clade B) (HIV)
[4] = target: Env of HIV isolate BG1168.01 (clade B) (HIV)
[5] = target: Env of HIV isolate BJOX002000.03.2 (clade BC) (HIV)
[6] = target: Env of HIV isolate BJOX028000.10.3 (clade AE) (HIV)
[7] = target: Env of HIV isolate BL01.DG (clade B) (HIV)
[8] = target: Env of HIV isolate BX08.16 (clade B) (HIV)
[9] = target: Env of HIV isolate CNE12 (clade B) (HIV)
[10] = target: Env of HIV isolate CNE31 (clade C) (HIV)
[11] = target: Env of HIV isolate CNE55 (clade AE) (HIV)
[12] = target: Env of HIV isolate HO86.8 (clade B) (HIV)
[13] = target: Env of HIV isolate HT593.1 (clade B) (HIV)
[14] = target: Env of HIV isolate MB201.A1 (clade A) (HIV)
[15] = target: Env of HIV isolate MS208.A1 (clade A) (HIV)
[16] = target: Env of HIV isolate Q259.17 (clade A) (HIV)
[17] = target: Env of HIV isolate R3265.c6 (clade AE) (HIV)
[18] = target: Env of HIV isolate T253-11 (clade AG) (HIV)
[19] = target: Env of HIV isolate T278-50 (clade AG) (HIV)
[20] = target: Env of HIV isolate ZA012.29 (clade C) (HIV)
[21] = target: Env of HIV isolate ZM215.8 (clade C) (HIV)
[22] = target: HIV Env of isolate 0013095-2.11 (HIV)
[23] = target: HIV Env of isolate 0077.v1.c16 (HIV)
[24] = target: HIV Env of isolate 16845-2.22 (HIV)
[25] = target: HIV Env of isolate 247-23 (HIV)
[26] = target: HIV Env of isolate 3415.v1.c1 (HIV)
[27] = target: HIV Env of isolate 3589.v1.c4 (HIV)
[28] = target: HIV Env of isolate 6101.10 (HIV)
[29] = target: HIV Env of isolate 6540.v4.c1 (HIV)
[30] = target: HIV Env of isolate 96ZM651.02 (HIV)
[31] = target: HIV Env of isolate A03349M1.vrc4a (HIV)
[32] = target: HIV Env of isolate A07412M1.vrc12 (HIV)
[33] = target: HIV Env of isolate AC10.29 (HIV)
[34] = target: HIV Env of isolate BS208.B1 (HIV)
[35] = target: HIV Env of isolate Bal.01 (HIV)
[36] = target: HIV Env of isolate CAP45.G3 (HIV)
[37] = target: HIV Env of isolate CH117.4 (HIV)
[38] = target: HIV Env of isolate CNE14 (HIV)
[39] = target: HIV Env of isolate CNE5 (HIV)
[40] = target: HIV Env of isolate CNE53 (HIV)
[41] = target: HIV Env of isolate DU422.01 (HIV)
[42] = target: HIV Env of isolate JRCSF.JB (HIV) (UniProt P20871)
[43] = target: HIV Env of isolate KNH1209.18 (HIV)
[44] = target: HIV Env of isolate MB539.2B7 (HIV)
[45] = target: HIV Env of isolate Q769.h5 (HIV)
[46] = target: HIV Env of isolate QH209.14M.A2 (HIV)
[47] = target: HIV Env of isolate R3265.c6 (HIV)
[48] = target: HIV Env of isolate T251-18 (HIV)
[49] = target: HIV Env of isolate T253-11 (HIV)
[50] = target: HIV Env of isolate TZA125.17 (HIV)
[51] = target: HIV Env of isolate X2088.c9 (HIV)
[52] = target: HIV Env of isolate ZM176.66 (HIV)
[53] = target: HIV Env of isolate ZM214.15 (HIV)

Chain of HIV Env of isolate JRCSF.JB (HIV) (P20871 32-848 limits assumed): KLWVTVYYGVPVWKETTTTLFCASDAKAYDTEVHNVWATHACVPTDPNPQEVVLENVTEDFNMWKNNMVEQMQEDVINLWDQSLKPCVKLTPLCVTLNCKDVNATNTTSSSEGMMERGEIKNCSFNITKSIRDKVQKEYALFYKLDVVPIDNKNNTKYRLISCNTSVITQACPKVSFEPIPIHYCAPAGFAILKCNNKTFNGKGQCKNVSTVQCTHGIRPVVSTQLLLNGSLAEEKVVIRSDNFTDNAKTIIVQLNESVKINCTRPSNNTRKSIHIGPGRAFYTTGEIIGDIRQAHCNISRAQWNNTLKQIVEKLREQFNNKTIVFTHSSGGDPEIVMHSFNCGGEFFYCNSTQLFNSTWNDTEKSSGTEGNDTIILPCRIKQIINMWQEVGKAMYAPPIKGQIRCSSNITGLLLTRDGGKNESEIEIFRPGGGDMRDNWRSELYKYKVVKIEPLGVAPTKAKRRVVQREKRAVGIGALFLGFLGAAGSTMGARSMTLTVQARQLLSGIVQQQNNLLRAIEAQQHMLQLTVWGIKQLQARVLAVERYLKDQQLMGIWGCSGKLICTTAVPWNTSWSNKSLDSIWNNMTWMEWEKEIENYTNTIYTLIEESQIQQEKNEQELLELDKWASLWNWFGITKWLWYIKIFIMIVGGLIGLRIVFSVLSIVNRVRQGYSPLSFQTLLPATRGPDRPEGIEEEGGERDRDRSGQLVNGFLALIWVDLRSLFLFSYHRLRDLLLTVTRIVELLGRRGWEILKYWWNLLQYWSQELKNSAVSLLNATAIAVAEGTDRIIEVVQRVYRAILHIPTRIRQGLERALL

For PGT121 (antibody), which IC50, pseudovirus neutralization [1] is on record?
The IC50, pseudovirus neutralization was 0.042 µg/mL.

And the IC50, pseudovirus neutralization [2]?
Its IC50, pseudovirus neutralization is 0.0337 µg/mL.

What about the IC50, pseudovirus neutralization [3] of the same substance?
The IC50, pseudovirus neutralization was 0.0333 µg/mL.

And the IC50, pseudovirus neutralization [4]?
The IC50, pseudovirus neutralization was > 50 µg/mL.

What about the IC50, pseudovirus neutralization [5] of the same substance?
The IC50, pseudovirus neutralization was 0.026 µg/mL.

What about the IC50, pseudovirus neutralization [6] of the same substance?
The IC50, pseudovirus neutralization was > 50 µg/mL.

And the IC50, pseudovirus neutralization [7]?
Its IC50, pseudovirus neutralization is 19.6 µg/mL.

And the IC50, pseudovirus neutralization [8]?
Its IC50, pseudovirus neutralization is 9.33 ng/mL.

And the IC50, pseudovirus neutralization [9]?
Its IC50, pseudovirus neutralization is 0.0153 µg/mL.

And the IC50, pseudovirus neutralization [10]?
The IC50, pseudovirus neutralization was 0.654 µg/mL.

And the IC50, pseudovirus neutralization [11]?
Its IC50, pseudovirus neutralization is > 50 µg/mL.

And the IC50, pseudovirus neutralization [12]?
The IC50, pseudovirus neutralization was > 50 µg/mL.

What about the IC50, pseudovirus neutralization [13] of the same substance?
The IC50, pseudovirus neutralization was > 50 µg/mL.

What about the IC50, pseudovirus neutralization [14] of the same substance?
The IC50, pseudovirus neutralization was 9.33 ng/mL.

And the IC50, pseudovirus neutralization [15]?
Its IC50, pseudovirus neutralization is > 50 µg/mL.

What about the IC50, pseudovirus neutralization [16] of the same substance?
The IC50, pseudovirus neutralization was > 50 µg/mL.

What about the IC50, pseudovirus neutralization [17] of the same substance?
The IC50, pseudovirus neutralization was > 50 µg/mL.

And the IC50, pseudovirus neutralization [18]?
Its IC50, pseudovirus neutralization is > 50 µg/mL.

And the IC50, pseudovirus neutralization [19]?
The IC50, pseudovirus neutralization was > 50 µg/mL.

And the IC50, pseudovirus neutralization [20]?
The IC50, pseudovirus neutralization was 0.0117 µg/mL.

What about the IC50, pseudovirus neutralization [21] of the same substance?
Its IC50, pseudovirus neutralization is 0.0307 µg/mL.

What about the IC80, pseudovirus neutralization [22] of the same substance?
Its IC80, pseudovirus neutralization is > 50 µg/mL.

And the IC80, pseudovirus neutralization [23]?
Its IC80, pseudovirus neutralization is > 50 µg/mL.

What about the IC80, pseudovirus neutralization [24] of the same substance?
Its IC80, pseudovirus neutralization is 18.6 µg/mL.

What about the IC80, pseudovirus neutralization [25] of the same substance?
The IC80, pseudovirus neutralization was > 50 µg/mL.

What about the IC80 [26] of the same substance?
Its IC80 is > 50 µg/mL.

And the IC80 [27]?
Its IC80 is > 50 µg/mL.

And the IC80 [28]?
The IC80 was 0.0353 µg/mL.

And the IC80 [29]?
Its IC80 is > 50 µg/mL.

And the IC80, pseudovirus neutralization [30]?
The IC80, pseudovirus neutralization was 0.0613 µg/mL.

What about the IC80, pseudovirus neutralization [31] of the same substance?
The IC80, pseudovirus neutralization was 0.359 µg/mL.

And the IC80, pseudovirus neutralization [32]?
The IC80, pseudovirus neutralization was 0.208 µg/mL.

And the IC80 [33]?
The IC80 was 0.149 µg/mL.

And the IC80 [34]?
The IC80 was > 50 µg/mL.

And the IC80 [35]?
Its IC80 is 0.0277 µg/mL.

What about the IC80, pseudovirus neutralization [36] of the same substance?
Its IC80, pseudovirus neutralization is > 50 µg/mL.

What about the IC80, pseudovirus neutralization [37] of the same substance?
The IC80, pseudovirus neutralization was > 50 µg/mL.

What about the IC80 [38] of the same substance?
The IC80 was 0.0243 µg/mL.

And the IC80 [39]?
Its IC80 is > 50 µg/mL.

What about the IC80, pseudovirus neutralization [40] of the same substance?
Its IC80, pseudovirus neutralization is 0.0723 µg/mL.

What about the IC80, pseudovirus neutralization [41] of the same substance?
Its IC80, pseudovirus neutralization is 0.176 µg/mL.

What about the IC80 [42] of the same substance?
Its IC80 is 0.162 µg/mL.

And the IC80 [43]?
Its IC80 is 0.0287 µg/mL.

And the IC80 [44]?
Its IC80 is > 50 µg/mL.

What about the IC80 [45] of the same substance?
The IC80 was > 50 µg/mL.

And the IC80 [46]?
The IC80 was > 50 µg/mL.

And the IC80 [47]?
The IC80 was > 50 µg/mL.

And the IC80 [48]?
Its IC80 is 23.2 µg/mL.

And the IC80 [49]?
Its IC80 is > 50 µg/mL.

What about the IC80, pseudovirus neutralization [50] of the same substance?
The IC80, pseudovirus neutralization was 9.43 µg/mL.

What about the IC80, pseudovirus neutralization [51] of the same substance?
The IC80, pseudovirus neutralization was 0.019 µg/mL.

What about the IC80, pseudovirus neutralization [52] of the same substance?
The IC80, pseudovirus neutralization was 27.6 µg/mL.

And the IC80, pseudovirus neutralization [53]?
Its IC80, pseudovirus neutralization is 1.57 µg/mL.
